The values that follow come from patent US20050059058A1 (CASE WESTERN RESERVE UNIVERSITY, published 2005).

The target in test [1] is T1, FtsZ protein (native, unlabelled) (Escherichia coli, UniProt P0A9A6 1-383).
T1 construct: also called native FtsZ; immobilized FtsZ
T1 sequence (looked up): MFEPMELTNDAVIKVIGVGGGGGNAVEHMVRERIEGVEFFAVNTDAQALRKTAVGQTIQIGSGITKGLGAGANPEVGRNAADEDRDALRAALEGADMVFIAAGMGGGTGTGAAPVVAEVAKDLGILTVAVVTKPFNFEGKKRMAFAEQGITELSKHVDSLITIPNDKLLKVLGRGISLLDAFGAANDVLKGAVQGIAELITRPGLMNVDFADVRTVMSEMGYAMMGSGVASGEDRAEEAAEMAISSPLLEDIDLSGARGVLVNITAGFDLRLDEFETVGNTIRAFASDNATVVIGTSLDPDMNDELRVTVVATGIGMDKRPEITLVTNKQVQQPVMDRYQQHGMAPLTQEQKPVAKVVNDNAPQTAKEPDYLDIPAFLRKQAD
The test is described as follows: assay not described.

Test [2] deals with T2, ZipA protein of E. coli (Escherichia coli, UniProt B1IX59 1-328).
T2 construct: Complete ZipA as present in the insoluble (P200) fraction of E. coli, or overproduced from the zipA ORF in a T7 system; on blots after boiling in SDS; also called 50 Kd band
The test is described as follows: affinity blotting (far Western) with 32P-labelled probe. From the text:
To address the possibility that other proteins interact with FtsZ, the present inventors searched for proteins with affinity to FtsZ. In one approach, a FtsZ derivative (HFKT-FtsZ) was made which carries at the N-terminus a histidine-tag (the his-tag is useful for purification by metal chelate affinity chromatography such as that described in U.S. Pat. No. 5,310,663, hereby incorporated by reference) as well s a substrate site for heart muscle kinase. The purified protein was radiolabeled in vitro by incubation with kinase and [γ³²P]ATP and used as a probe on Western blots.
After the addition of one volume of electrophoresis sample buffer (125 mM Tris.Cl, 4% SDS, 20% glycerol, 1.4 M (β-mercaptoethanol, pH=6.6), samples (e.g., whole cells boiled in sample buffer, or fractionated cells) were held in a boiling water bath for 5 min., and subjected to conventional SDS-PAGE on 0.75 mm thick 10% T/2.7% C gels. Electrophoretic transfer to nitrocellulose filter (0.2μ) was performed in a Genie blotter (Idea Scientific Co.) with regular Towbin buffer (25 mM Tris.Cl, 192 mM glycine, 20% methanol, pH 8.3) at 12 V for 30 min. To monitor the transfer and to visualize the molecular weight standards, filters were treated with the reversible stain Ponceau S (0.1% in 5% acetic acid) for 1 min. Filters were next destained in 10 mM Tris-Cl, rinsed in water, and allowed to dry for 15 min in air.

B1: soluble fragment of ZipA (the 39-328 peptide) (other)
chain: not shown
notes: also called portion or fragment of the ZipA protein
In the case of B1, the binding result in test [1] is on record as “binds”.

B2: HFKT-MinE fusion protein (15.9 kD, encoded by pDB311), 32P-labelled (other, Escherichia coli)
chain: MGHHHHHHHHHHSSGHIEGRHMDYKDDDDKARRASVEFHMASMTGGQQMGRGSDFFLSRKKNTANIAKERLQIIVAERRRSDAEPHYLPQLRKDILEVICKYVQIDPEMVTVQLEQKDGDISILELNVTLPEAEELK
modifications: 32P-phosphorylated in vitro by bovine heart muscle kinase at the kinase substrate site of the HFKT tag
notes: range 5-88; Negative control probe; also called HKFT-MinE; radiolabelled HKFT-MinE
B2: in test [2], the binding result was “no binding”.
